Assay results as given in patent US20130209454A1.

Experiments:
Assay in all cases: cell-based or functional assay
[1] = target: HIV-1 strain THRO4156.18 envelope (gp120) (HIV-1)
[2] = target: HIV-1 Env of strain ZM135M.PL10a (HIV-1)
[3] = target: HIV-1 strain X1193_c1 envelope (gp120) (HIV-1)
[4] = target: HIV-1 Env of strain 3817.v2.c59 (HIV-1)
[5] = target: HIV-1 Env of strain P1981_C5_3 (HIV-1)
[6] = target: HIV-1 Env of strain R1166.c01 (HIV-1)
[7] = target: HIV-1 strain Ce2010_F5 envelope (gp120) (HIV-1)
[8] = target: HIV-1 Env of strain CNE30 (HIV-1)
[9] = target: HIV-1 strain HIV-16845-2.22 envelope (gp120) (HIV-1)
[10] = target: HIV-1 Env of strain Q769.d22 (HIV-1)
[11] = target: HIV-1 Env of strain T251-18 (HIV-1)
[12] = target: HIV-1 strain Ce2060_G9 envelope (gp120) (HIV-1)
[13] = target: HIV-1 strain C3347.c11 envelope (gp120) (HIV-1)
[14] = target: HIV-1 strain CAAN5342.A2 envelope (gp120) (HIV-1)
[15] = target: HIV-1 strain X2131_C1_B5 envelope (gp120) (HIV-1)
[16] = target: HIV-1 Env of strain 231965.c01 (HIV-1)
[17] = target: HIV-1 Env of strain ZM109F.PB4 (HIV-1)
[18] = target: HIV-1 strain 928-28 envelope (gp120) (HIV-1)
[19] = target: HIV-1 strain R2184.04 envelope (gp120) (HIV-1)
[20] = target: HIV-1 Env of strain C1080.c03 (HIV-1)
[21] = target: HIV-1 strain ZM109F.PB4 envelope (gp120) (HIV-1)
[22] = target: HIV-1 Env of strain 620345.c01 (HIV-1)
[23] = target: HIV-1 Env of strain 6535.3 (HIV-1)
[24] = target: HIV-1 Env of strain Ce2010_F5 (HIV-1)
[25] = target: HIV-1 Env of strain C3347.c11 (HIV-1)
[26] = target: HIV-1 strain WITO4160.33 envelope (gp120) (HIV-1)
[27] = target: HIV-1 Env of strain Ce0393_C3 (HIV-1)
[28] = target: HIV-1 Env of strain 928-28 (HIV-1)
[29] = target: HIV-1 strain 1054_07_TC4_1499 envelope (gp120) (HIV-1)
[30] = target: HIV-1 strain CNE20 envelope (gp120) (HIV-1)
[31] = target: HIV-1 Env of strain R2184.c04 (HIV-1)
[32] = target: HIV-1 strain Ce703010054_2A2 envelope (gp120) (HIV-1)
[33] = target: HIV-1 Env of strain 231966.c02 (HIV-1)
[34] = target: HIV-1 Env of strain Q23.17 (HIV-1)
[35] = target: HIV-1 Env of strain CAAN5342.A2 (HIV-1)
[36] = target: HIV-1 strain 1006_11_C3_1601 envelope (gp120) (HIV-1)
[37] = target: HIV-1 strain 6540.v4.c1 envelope (gp120) (HIV-1)
[38] = target: HIV-1 strain ZM233M.PB6 envelope (gp120) (HIV-1)
[39] = target: HIV-1 Env of strain 0330.v4.c3 (HIV-1)
[40] = target: HIV-1 Env of strain 3301.v1.c24 (HIV-1)
[41] = target: HIV-1 Env of strain Ce2060_G9 (HIV-1)
[42] = target: HIV-1 strain T250-4 envelope (gp120) (HIV-1)
[43] = target: HIV-1 Env of strain TRO.11 (HIV-1)
[44] = target: HIV-1 strain 3817.v2.c59 envelope (gp120) (HIV-1)
[45] = target: HIV-1 strain CAP210.2.00.E8 envelope (gp120) (HIV-1)
[46] = target: HIV-1 strain T278-50 envelope (gp120) (HIV-1)
[47] = target: HIV-1 Env of strain ZM53M.PB12 (HIV-1)
[48] = target: HIV-1 strain Q842.d12 envelope (gp120) (HIV-1)
[49] = target: HIV-1 strain CNE21 envelope (gp120) (HIV-1)
[50] = target: HIV-1 Env of strain 6811.v7.c18 (HIV-1)

B1: NIH45-46^G54Y IgG (antibody, name in Kabat numbering, V domains shown)
VH: QVRLSQSGGQMKKPGESMRLSCRASGYEFLNCPINWIRLAPGRRPEWMGWLKPRYGAVNYARKFQGRVTMTRDVYSDTAFLELRSLTSDDTAVYFCTRGKYCTARDYYNWDFEHWGRGAPVTVSS
VL: EIVLTQSPATLSLSPGETAIISCRTSQSGSLAWYQQRPGQAPRLVIYSGSTRAAGIPDRFSGSRWGADYNLSISNLESGDFGVYYCQQYEFFGQGTKVQVDI
- neutralization IC80 [1]: 2.14 µg/mL
- neutralization IC50 [2]: 0.09 µg/mL
- neutralization IC80 [3]: 0.024 µg/mL
- neutralization IC50 [4]: > 50 µg/mL
- neutralization IC50 [5]: 0.04 µg/mL
- neutralization IC50 [6]: 0.24 µg/mL
- neutralization IC80 [7]: 0.235 µg/mL
- neutralization IC50 [8]: 0.099 µg/mL
- neutralization IC80 [9]: 2.75 µg/mL
- neutralization IC50 [10]: 0.007 µg/mL
- neutralization IC50 [11]: 0.35 µg/mL
- neutralization IC80 [12]: 0.068 µg/mL
- neutralization IC80 [13]: 0.052 µg/mL
- neutralization IC80 [14]: 0.27 µg/mL
- neutralization IC80 [15]: 0.39 µg/mL
- neutralization IC50 [16]: 0.025 µg/mL
- neutralization IC50 [17]: 0.026 µg/mL
- neutralization IC80 [18]: 0.33 µg/mL
- neutralization IC80 [19]: 0.045 µg/mL
- neutralization IC50 [20]: 0.29 µg/mL
- neutralization IC80 [21]: 0.168 µg/mL
- neutralization IC50 [22]: > 50 µg/mL
- neutralization IC50 [23]: 0.08 µg/mL
- neutralization IC50 [24]: 0.049 µg/mL
- neutralization IC50 [25]: 0.011 µg/mL
- neutralization IC80 [26]: 0.09 µg/mL
- neutralization IC50 [27]: 0.036 µg/mL
- neutralization IC50 [28]: 0.12 µg/mL
- neutralization IC80 [29]: 0.236 µg/mL
- neutralization IC80 [30]: 2.4 µg/mL
- neutralization IC50 [31]: 0.015 µg/mL
- neutralization IC80 [32]: 0.07 µg/mL
- neutralization IC50 [33]: 0.06 µg/mL
- neutralization IC50 [34]: 0.02 µg/mL
- neutralization IC50 [35]: 0.1 µg/mL
- neutralization IC80 [36]: 0.021 µg/mL
- neutralization IC80 [37]: > 50 µg/mL
- neutralization IC80 [38]: 0.78 µg/mL
- neutralization IC50 [39]: 0.03 µg/mL
- neutralization IC50 [40]: 0.003 µg/mL
- neutralization IC50 [41]: 0.021 µg/mL
- neutralization IC80 [42]: > 50 µg/mL
- neutralization IC50 [43]: 0.08 µg/mL
- neutralization IC80 [44]: > 50 µg/mL
- neutralization IC80 [45]: > 50 µg/mL
- neutralization IC80 [46]: > 50 µg/mL
- neutralization IC50 [47]: 0.06 µg/mL
- neutralization IC80 [48]: 0.045 µg/mL
- neutralization IC80 [49]: 0.29 µg/mL
- neutralization IC50 [50]: 0.011 µg/mL

B2: NIH45-46^G54W IgG (antibody, name in Kabat numbering, V domains shown)
VH: QVRLSQSGGQMKKPGESMRLSCRASGYEFLNCPINWIRLAPGRRPEWMGWLKPRWGAVNYARKFQGRVTMTRDVYSDTAFLELRSLTSDDTAVYFCTRGKYCTARDYYNWDFEHWGRGAPVTVSS
VL: EIVLTQSPATLSLSPGETAIISCRTSQSGSLAWYQQRPGQAPRLVIYSGSTRAAGIPDRFSGSRWGADYNLSISNLESGDFGVYYCQQYEFFGQGTKVQVDI
- neutralization IC80 [1]: 1.81 µg/mL
- neutralization IC50 [2]: 0.04 µg/mL
- neutralization IC80 [3]: 0.009 µg/mL
- neutralization IC50 [4]: > 50 µg/mL
- neutralization IC50 [5]: 0.02 µg/mL
- neutralization IC50 [6]: 0.13 µg/mL
- neutralization IC80 [7]: 0.187 µg/mL
- neutralization IC50 [8]: 0.052 µg/mL
- neutralization IC80 [9]: 2.1 µg/mL
- neutralization IC50 [10]: < 0.001 µg/mL
- neutralization IC50 [11]: 0.26 µg/mL
- neutralization IC80 [12]: 0.042 µg/mL
- neutralization IC80 [13]: 0.028 µg/mL
- neutralization IC80 [14]: 0.21 µg/mL
- neutralization IC80 [15]: 0.24 µg/mL
- neutralization IC50 [16]: < 0.001 µg/mL
- neutralization IC50 [17]: 0.002 µg/mL
- neutralization IC80 [18]: 0.25 µg/mL
- neutralization IC80 [19]: 0.036 µg/mL
- neutralization IC50 [20]: 0.2 µg/mL
- neutralization IC80 [21]: 0.07 µg/mL
- neutralization IC50 [22]: > 50 µg/mL
- neutralization IC50 [23]: 0.03 µg/mL
- neutralization IC50 [24]: 0.038 µg/mL
- neutralization IC50 [25]: < 0.001 µg/mL
- neutralization IC80 [26]: 0.04 µg/mL
- neutralization IC50 [27]: 0.013 µg/mL
- neutralization IC50 [28]: 0.06 µg/mL
- neutralization IC80 [29]: 0.165 µg/mL
- neutralization IC80 [30]: 0.48 µg/mL
- neutralization IC50 [31]: 0.005 µg/mL
- neutralization IC80 [32]: 0.077 µg/mL
- neutralization IC50 [33]: 0.02 µg/mL
- neutralization IC50 [34]: 0.01 µg/mL
- neutralization IC50 [35]: 0.07 µg/mL
- neutralization IC80 [36]: 0.008 µg/mL
- neutralization IC80 [37]: > 50 µg/mL
- neutralization IC80 [38]: 0.11 µg/mL
- neutralization IC50 [39]: 0.03 µg/mL
- neutralization IC50 [40]: < 0.001 µg/mL
- neutralization IC50 [41]: 0.005 µg/mL
- neutralization IC80 [42]: 44.9 µg/mL
- neutralization IC50 [43]: 0.04 µg/mL
- neutralization IC80 [44]: > 50 µg/mL
- neutralization IC80 [45]: > 50 µg/mL
- neutralization IC80 [46]: > 50 µg/mL
- neutralization IC50 [47]: 0.04 µg/mL
- neutralization IC80 [48]: 0.025 µg/mL
- neutralization IC80 [49]: 0.16 µg/mL
- neutralization IC50 [50]: < 0.001 µg/mL
